Experimental data taken from the supplement of paper PMC9170038.

test system: MS2 coat protein; assay: apparent KD of MS2 coat protein, switch ON state; designed switch direction (-1 OFF switch, 1 ON switch): 1; higher = weaker reporter binding; conditions: FMN input: 0 or 200 uM; Eterna round: R93 (includes R88 designs)
How it was run: (§1)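 Designed RNA switches were transcribed on-chip from Illumina sequencing clusters. They were then titrated with SNAP-549-labelled MS2 coat protein (twofold steps, 0.7 or 1.5 nM to 3 µM; 0.8–1.5 h to 10–20 min per step) in 100 mM Tris-HCl pH 7.5, 80 mM KCl, 4 mM MgCl2, without or with constant ligand. Apparent KD is the per-design median of normalised cluster binding-curve fits.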

Compared with “GGGAGGAAGAGAGAGGAUAUCCAAAGGAAAACAUGAGGAUCACCCAUGUAAAAGGUAGGAAAUUGGGAGAAGGCUCAAAAGAGUG [salish99-ss2-043]”, “AAAAAGAACACGCAGGAUAUGCAAAGAAACACAUGAGGAUCACCCAUGUCCAAAAACCCAAAAACGCAGAAGGGCGAAAAACCCA [Default title]” is 1.9-fold higher in “apparent KD of MS2 coat protein” value: 13.7 nM for the first, 25.6 nM for the second.

First: AAAAGACAUGAGGAUCACCCAUGUAAAGACAUGAGAGGAUAUGCAUGGAAAACAUGCUGUGCAGAAGGCUCAUGUC [SS1 - 17]
Second: AAAAAACAUGAGGAUCACCCAUGUGCAAAAUUCGCAGGAUAUUCCUCAAUUAAAUGAGAGGAAGAAGGGUGUAAAA [Nob's Hobby 25 - Jieux - Same State 1]
The “apparent KD of MS2 coat protein” value of the first is 1.5-fold lower: 18.1 nM for the first, 27.4 nM for the second.

“GACAGACAUGAGGAUCACCCAUGUAGAAUUAUGGGAGGAUAUACAAAGACGAGAGUCAGAGUAGAAGGCCUAGGAA [salish99-ss1-167]” and “AAAUAAAUGACUAAGGAUAUAUCAAAAGAAACAUGAGGAUCACCCAUGUAAUAAUAAAAAGGGUGAUAGAAGGUAGUCAACAAAC [74%, More Paria 4]” are within 1.5-fold of each other in “apparent KD of MS2 coat protein” value: 23.2 nM for the first, 24.6 nM for the second.

“AAAAAACAUGAGGAUCACCCAUGUAAAAAUAUGGGAGGAUAUACAAACACGAAAGUGAAAGUAGAAGGCCUAAAAA [SS! MT 17]” and “AAAACACAUGAGGAUCACCCAUGUGAAAACAUGAGAGGAUAUGCAUGGAAAACAUGCUAUGCAGAAGGCUCAUGUG [SS1 - 8]” are within 1.5-fold of each other in “apparent KD of MS2 coat protein” value: 19 nM for the first, 16.5 nM for the second.

Compared with “GGGAGGAAGAGAGAGGAUAUCCAAAGGAAAACAUGAGGAUCACCCAUGUAAAAGGUAGGAAAUUGGGAGAAGGCUCAAAAGAUGG [salish99-ss2-046]”, “GCAAAACAUGAGGAUCACCCAUGUGAAAAGAAUGUAGGAUAUGGGCUCAGAAAUAGCAGCCCAGAAGGGCGAAGAA [Xequamara]” is 3.2-fold lower in “apparent KD of MS2 coat protein” value: 70.5 nM for the first, 21.9 nM for the second.

Going from “AAAAAACAUGAGGAUCACCCAUGUGAGAACAUGGGAGGAUAUACGAGGACGAGAGUCAAGGUAGAAGGCCUAAAAG [Garnet 73]” to “UAUCAUUACACGAAGGAUAUCGAUAAUUGAACAUGAGGAUCACCCAUGUGAUAUAUAAUACAGUUCGAGAAGGUCGAGGGUGAAG [JR_SS002_Sub704]”, the “apparent KD of MS2 coat protein” value falls from 50.1 nM to 17.8 nM (2.8-fold).

First: UGGAGACAUGAGGAUCACCCAUGUGAGAAGAGGCGAGGAUAUCGAAAGAAAGAAGAGAAACGAGAAGGCGCGAGGU [salish99-SS1-036]
Second: AGAAAUAAAAGAGAGGAUAUCCAAAAGAAAACAUGAGGAUCACCCAUGUAAAAGAAAAUAAAGUGGGAGAAGGCUCAAAAUAAGA [Jieux modified]
The “apparent KD of MS2 coat protein” value of the first is 2.1-fold higher: 34.4 nM for the first, 16.4 nM for the second.

Compared with “AGAAAUAAAACGCAGGAUAUCCAAAAGAAAACAUGAGGAUCACCCAUGUAAAAGAAAAUAAAAUGGGAGAAGGGCGAAAUAAAGA [Mat - Same State 2 - Eli mod - D92]”, “GAAAAACAUGAGGAUCACCCAUGUGAUAACAUGGGAGGAUAUACAAGGACGAUAGUCAAAGUAGAAGGCCUAAAAG [Garnet 61]” is 15-fold higher in “apparent KD of MS2 coat protein” value: 19.3 nM for the first, 289 nM for the second.

“AAAAAACAUGAGGAUCACCCAUGUCGAAAGACGUGAGGAUAUGUACAGACUUCGGUCUGUACAGAAGGCACAAAAA [SS1 - 1032]” and “GCCGGUUAUGAGCAGGAUAUGUCACCGCUAACAUGAGGAUCACCCAUGUGAGCAAAAUCGAGGUCACAGAAGGGUUCCGGCAAAA [Disoerce]” are within 1.5-fold of each other in “apparent KD of MS2 coat protein” value: 24.6 nM for the first, 17.8 nM for the second.

test system: MS2 coat protein; assay: apparent KD of MS2 coat protein, switch OFF state (with FMN for OFF switches, without FMN for ON switches); designed switch direction (-1 OFF switch, 1 ON switch): 1; higher = weaker reporter binding; conditions: FMN input: 0 or 200 uM; Eterna round: R93 (includes R88 designs)
How it was run: as §1

“GGGAGGAAGAGAGAGGAUAUCCAAAGGAAAACAUGAGGAUCACCCAUGUAAAAGGUAGGAAAUUGGGAGAAGGCUCAAAAGAGUG [salish99-ss2-043]” and “AAAAAGAACACGCAGGAUAUGCAAAGAAACACAUGAGGAUCACCCAUGUCCAAAAACCCAAAAACGCAGAAGGGCGAAAAACCCA [Default title]” are within 1.5-fold of each other in “apparent KD of MS2 coat protein” value: 22.2 nM for the first, 28.3 nM for the second.

Compared with “AAAAGACAUGAGGAUCACCCAUGUAAAGACAUGAGAGGAUAUGCAUGGAAAACAUGCUGUGCAGAAGGCUCAUGUC [SS1 - 17]”, “AAAAAACAUGAGGAUCACCCAUGUGCAAAAUUCGCAGGAUAUUCCUCAAUUAAAUGAGAGGAAGAAGGGUGUAAAA [Nob's Hobby 25 - Jieux - Same State 1]” is 5.8-fold higher in “apparent KD of MS2 coat protein” value: 22.6 nM for the first, 130 nM for the second.

Going from “GACAGACAUGAGGAUCACCCAUGUAGAAUUAUGGGAGGAUAUACAAAGACGAGAGUCAGAGUAGAAGGCCUAGGAA [salish99-ss1-167]” to “AAAUAAAUGACUAAGGAUAUAUCAAAAGAAACAUGAGGAUCACCCAUGUAAUAAUAAAAAGGGUGAUAGAAGGUAGUCAACAAAC [74%, More Paria 4]”, the “apparent KD of MS2 coat protein” value rises from 52.8 nM to 115 nM (2.2-fold).

Going from “AAAAAACAUGAGGAUCACCCAUGUAAAAAUAUGGGAGGAUAUACAAACACGAAAGUGAAAGUAGAAGGCCUAAAAA [SS! MT 17]” to “AAAACACAUGAGGAUCACCCAUGUGAAAACAUGAGAGGAUAUGCAUGGAAAACAUGCUAUGCAGAAGGCUCAUGUG [SS1 - 8]”, the “apparent KD of MS2 coat protein” value falls from 85.3 nM to 23.2 nM (3.7-fold).

“GGGAGGAAGAGAGAGGAUAUCCAAAGGAAAACAUGAGGAUCACCCAUGUAAAAGGUAGGAAAUUGGGAGAAGGCUCAAAAGAUGG [salish99-ss2-046]” and “GCAAAACAUGAGGAUCACCCAUGUGAAAAGAAUGUAGGAUAUGGGCUCAGAAAUAGCAGCCCAGAAGGGCGAAGAA [Xequamara]” are within 1.5-fold of each other in “apparent KD of MS2 coat protein” value: 22.3 nM for the first, 24.8 nM for the second.

Compared with “AAAAAACAUGAGGAUCACCCAUGUGAGAACAUGGGAGGAUAUACGAGGACGAGAGUCAAGGUAGAAGGCCUAAAAG [Garnet 73]”, “UAUCAUUACACGAAGGAUAUCGAUAAUUGAACAUGAGGAUCACCCAUGUGAUAUAUAAUACAGUUCGAGAAGGUCGAGGGUGAAG [JR_SS002_Sub704]” is 1.8-fold higher in “apparent KD of MS2 coat protein” value: 13.6 nM for the first, 23.9 nM for the second.

Going from “UGGAGACAUGAGGAUCACCCAUGUGAGAAGAGGCGAGGAUAUCGAAAGAAAGAAGAGAAACGAGAAGGCGCGAGGU [salish99-SS1-036]” to “AGAAAUAAAAGAGAGGAUAUCCAAAAGAAAACAUGAGGAUCACCCAUGUAAAAGAAAAUAAAGUGGGAGAAGGCUCAAAAUAAGA [Jieux modified]”, the “apparent KD of MS2 coat protein” value rises from 49.6 nM to 129 nM (2.6-fold).

Going from “AGAAAUAAAACGCAGGAUAUCCAAAAGAAAACAUGAGGAUCACCCAUGUAAAAGAAAAUAAAAUGGGAGAAGGGCGAAAUAAAGA [Mat - Same State 2 - Eli mod - D92]” to “GAAAAACAUGAGGAUCACCCAUGUGAUAACAUGGGAGGAUAUACAAGGACGAUAGUCAAAGUAGAAGGCCUAAAAG [Garnet 61]”, the “apparent KD of MS2 coat protein” value rises from 20.9 nM to 47.9 nM (2.3-fold).

Compared with “AAAAAACAUGAGGAUCACCCAUGUCGAAAGACGUGAGGAUAUGUACAGACUUCGGUCUGUACAGAAGGCACAAAAA [SS1 - 1032]”, “GCCGGUUAUGAGCAGGAUAUGUCACCGCUAACAUGAGGAUCACCCAUGUGAGCAAAAUCGAGGUCACAGAAGGGUUCCGGCAAAA [Disoerce]” is 5-fold lower in “apparent KD of MS2 coat protein” value: 208 nM for the first, 41.9 nM for the second.
